These results are taken from US20240327534A1 (HARPOON THERAPEUTICS, published 2024).

The target in one assay is T1, human BCMA protein (human, UniProt Q02223 1-54, limits assumed).
T1 sequence: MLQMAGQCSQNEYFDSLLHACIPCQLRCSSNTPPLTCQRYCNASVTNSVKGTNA
In words: affinity to human BCMA protein, method not stated.

Assay [1] deals with T2, human BCMA on BCMA expressing cell lines (human, UniProt Q02223 1-184).
T2 sequence: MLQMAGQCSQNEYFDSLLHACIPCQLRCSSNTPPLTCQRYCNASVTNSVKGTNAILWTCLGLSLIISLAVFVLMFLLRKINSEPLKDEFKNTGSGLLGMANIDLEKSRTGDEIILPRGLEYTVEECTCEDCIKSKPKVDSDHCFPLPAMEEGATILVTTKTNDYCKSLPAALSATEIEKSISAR
In words: cell-based or functional assay.

B1: BCMA targeting trispecific protein 253BH10 (other, not shown: large carriers; small tags and cut ends)
VHH: QVQLVESGGGLVQPGESLRLSCAASTNIFSISPMGWYRQAPGKQRELVAAIHGFSTLYADSVKGRFTISRDNAKNTIYLQMNSLKPEDTAVYYCNKVPWGDYHPRNVYWGQGTQVTVSS
notes: trispecific; described as a molecule with the parental CDRs; also called BH253
In the assay with human BCMA protein, B1 had a Kd of 27700 pM. Moreover, the “TDCC EC50 (EJM cells)” value in assay [1] turned out to be 52.9 pM.

B2: BCMA targeting trispecific protein 01A04 (other, not shown: large carriers; small tags and cut ends)
VHH: EVQLVESGGGLVQPGRSLTLSCAASTNIFMISPMGWYRQAPGKQRELVAAIHGDSTLYADSVKGRFTISRDNAKNSIYLQMNSLRPEDTALYYCNKVPWGRYHPRNVYWGQGTQVTVSS
notes: trispecific
The molecule B2 had an equilibrium dissociation constant (Kd) with human BCMA protein of 37500 pM. In addition, the “TDCC EC50 (EJM cells)” value in assay [1] came out at 159 pM.

B3: BCMA targeting trispecific protein 01A06 (other)
VHH: EVQLVESGGGLVQPGRSLTLSCAASTNIFSIRPMGWYRQAPGKQRELVAAIHGFSTVYADSVKGRFTISRDNAKNSIYLQMNSLRPEDTALYYCNKVPWGDYHPRNVYWGQGTQVTVSS
notes: trispecific; not shown: the C-terminal 6xHis tag follows those missing domains and is left out
Molecule B3 had a dissociation constant (Kd) in the assay with human BCMA protein of 15800 pM. In addition, the “TDCC EC50 (EJM cells)” value in assay [1] amounted to 11 pM.

B4: BCMA targeting trispecific protein 01A01 (other, not shown: large carriers; small tags and cut ends)
VHH: EVQLVESGGGLVQPGRSLTLSCAASTDIFSISPMGWYRQAPGKQRELVAAIHGGSTLYADSVKGRFTISRDNAKNSIYLQMNSLRPEDTALYYCNKVPWGDYHPRNVAWGQGTQVTVSS
notes: trispecific
Molecule B4 gave a Kd with human BCMA protein of 21300 pM. The “TDCC EC50 (EJM cells)” value in assay [1] came out at 26.4 pM.

B5: BCMA targeting trispecific protein 01A07 (other)
VHH: EVQLVESGGGLVQPGRSLTLSCAASTNISSISPMGWYRQAPGKQRELVAAIHGTSTLYADSVKGRFTISRDNAKNSIYLQMNSLRPEDTALYYCNKVPWGDYHPGNVYWGQGTQVTVSS
notes: trispecific; not shown: the C-terminal His6 follows those missing domains and is left out
B5 showed a Kd with human BCMA protein of 6950 pM. Besides, in assay [1], the “TDCC EC50 (EJM cells)” value worked out at 2.49 pM.

B6: BCMA targeting trispecific protein 01H06 (other, not shown: large carriers; small tags and cut ends)
VHH: EVQLVESGGGLVQPGRSLTLSCAASTSDFSISPMGWYRQAPGKQRELVAAIHGFETLYADSVKGRFTISRDNAKNSIYLQMNSLRPEDTALYYCNKVPWGDYHPGNVYWGQGTQVTVSS
Regarding B6, the “TDCC EC50 (EJM cells)” value in assay [1] came out at 1 pM.

B7: BCMA targeting trispecific protein 01A03 (other, not shown: large carriers; small tags and cut ends)
VHH: EVQLVESGGGLVQPGRSLTLSCAASTNIFSISPGGWYRQAPGKQRELVAAIHGSSTLYADSVKGRFTISRDNAKNSIYLQMNSLRPEDTALYYCNKVPWGDYHPRNVYWGQGTQVTVSS
notes: trispecific
On to B7, for which, in the assay with human BCMA protein, the Kd was found to be 30800 pM. Besides, the “TDCC EC50 (EJM cells)” value in assay [1] came out at 46.1 pM.

B8: BCMA targeting trispecific protein 01A09 (other, not shown: large carriers; small tags and cut ends)
VHH: EVQLVESGGGLVQPGRSLTLSCAASTNIFSITPMGWYRQAPGKQRELVAAIHGRSTLYADSVKGRFTISRDNAKNSIYLQMNSLRPEDTALYYCNKVPWGSYHPRNVYWGQGTQVTVSS
notes: trispecific
The molecule B8 displayed a Kd with human BCMA protein of 23900 pM. In assay [1], the “TDCC EC50 (EJM cells)” value is 48.4 pM.

B9: BCMA targeting trispecific protein 01A08 (other, not shown: large carriers; small tags and cut ends)
VHH: EVQLVESGGGLVQPGRSLTLSCAASTNIFSSSPMGWYRQAPGKQRELVAAIHGESTLYADSVKGRFTISRDNAKNSIYLQMNSLRPEDTALYYCNKVPWGDYHPRKVYWGQGTQVTVSS
notes: trispecific
For B9, in the assay with human BCMA protein, the Kd is 11700 pM. Also, the “TDCC EC50 (EJM cells)” value in assay [1] worked out at 4.25 pM.

B10: BCMA targeting trispecific protein 01A02 (other, not shown: large carriers; small tags and cut ends)
VHH: EVQLVESGGGLVQPGRSLTLSCAASTNIFSSSPMGWYRQAPGKQRELVAAINGFSTLYADSVKGRFTISRDNAKNSIYLQMNSLRPEDTALYYCNKVPWGDYHPRNVHWGQGTQVTVSS
notes: trispecific
In the assay with human BCMA protein, B10 displayed a Kd of 21500 pM. Further, the “TDCC EC50 (EJM cells)” value in assay [1] is 21.8 pM.

B11: BCMA targeting trispecific protein 01A05 (other)
VHH: EVQLVESGGGLVQPGRSLTLSCAASTNIFSSSPMGWYRQAPGKQRELVAAIHGFSTLYADSVKGRFTISRDNAKNSIYLQMNSLRPEDTALYYCNKVPWGDYHPRNVYWGQGTQVTVSS
notes: trispecific; not shown: anti-albumin domain, anti-CD3 domain and the linkers of the trispecific (TriTAC) format
The molecule B11 showed a Kd with human BCMA protein of 17000 pM. Also, the “TDCC EC50 (EJM cells)” value in assay [1] is 15.1 pM.

As a reminder, the Kd is a measure of binding affinity in units of concentration. Low values mean higher affinity, high ones lower affinity.
